For 19 molecules, Kd results are on record in PMC9352680, “A comprehensive thermodynamic model for RNA binding by the Saccharomyces cerevisiae Pumilio protein PUF4”.

For the data set, the target named is T1, PUF4 RNA-binding domain (Saccharomyces cerevisiae, UniProt P25339 537-888).
T1 sequence: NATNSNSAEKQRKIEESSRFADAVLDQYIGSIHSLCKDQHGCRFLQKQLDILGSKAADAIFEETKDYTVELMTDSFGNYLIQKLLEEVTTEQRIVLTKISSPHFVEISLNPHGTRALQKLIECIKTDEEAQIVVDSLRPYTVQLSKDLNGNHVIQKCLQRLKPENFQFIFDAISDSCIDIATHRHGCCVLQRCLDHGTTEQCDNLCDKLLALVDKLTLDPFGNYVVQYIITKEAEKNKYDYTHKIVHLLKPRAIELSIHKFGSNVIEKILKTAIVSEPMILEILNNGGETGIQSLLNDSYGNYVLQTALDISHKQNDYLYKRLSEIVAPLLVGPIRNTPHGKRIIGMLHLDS
Briefly: Mg; RNA-MaP; 20 mM Na-HEPES pH 7.4, 30 mM KOAc, 0.75 mM MgCl2, 0.1% Tween-20, 5% glycerol, 0.1 mg/mL BSA, 2 mM DTT; 25 C; 0.0125-409.6 nM protein. Particulars: tags: N-His6-TEV cleaved; C-SNAP kept, Cy3B-labelled; label: tethered on chip by stalled RNA polymerase.

B1: Ib_S1_P5E.1_K5.1_C5.1_H5.1_[A4T]_A5.1_F5.1_[A10T]_T5.1 (ssRNA)
RNA: UCUCUUUGUUUUAUUUUCUCUU
One may read the Kd as the constant that tells how readily two partners part at equilibrium. A low value points to tighter binding. With B1, the affinity, expressed as Kd, was 864 nM.

B2: Id_ii_S2_P4E.4_K4.3_C4.2_[C-2T]_[T-1C]_H4.3_A4.1_F4.1_T4.2_[G10C]_[T11C] (ssRNA)
RNA: UUUGAUUAAUAUGAUAUCGUUCUUUCUUCACACUAUUACCUUCUUUCUCGAUAUCAUAUUAAUCUUU
For B2, the dissociation constant (Kd) is > 2300 nM.

B3: Id_ii_S2_P4E.4_K4.3_C4.2_[C-2T]_[T-1C]_H4.3_A4.1_F4.1_T4.2_[G10T] (ssRNA)
RNA: UUUGAUUAAUAUGAUAUCGUUCUUUCUUCACACUAUUAUUUUCUUUCUCGAUAUCAUAUUAAUCUUU
As for B3, the Kd was 1530 nM.

B4: Id_ii_S2_P4E.4_K4.3_C4.2_[C-2T]_[T-1C]_H4.3_A4.1_F4.1_T4.2_[G10A]_[T11A] (ssRNA)
RNA: UUUGAUUAAUAUGAUAUCGUUCUUUCUUCACACUAUUAAAUUCUUUCUCGAUAUCAUAUUAAUCUUU
Consider B4, for which the Kd was > 2300 nM.

B5: Id_ii_S2_P4E.4_K4.3_C4.2_[C-2T]_[T-1A]_H4.3_A4.1_F4.1_T4.2 (ssRNA)
RNA: UUUGAUUAAUAUGAUAUCGUUCUUUCUUAACACUAUUAGUUUCUUUCUCGAUAUCAUAUUAAUCUUU
Regarding B5, the dissociation constant (Kd) is > 2300 nM.

B6: Id_ii_S2_P4E.4_K4.3_C4.2_[C-2T]_H4.3_A4.1_F4.1_T4.2_[G10A]_[T11C] (ssRNA)
RNA: UUUGAUUAAUAUGAUAUCGUUCUUUCUUUACACUAUUAACUUCUUUCUCGAUAUCAUAUUAAUCUUU
As to B6, the Kd came out at 305 nM.

B7: Id_ii_S2_P4E.4_K4.3_C4.2_[C-2T]_[T-1A]_H4.3_A4.1_F4.1_T4.2_[G10T]_[T11A] (ssRNA)
RNA: UUUGAUUAAUAUGAUAUCGUUCUUUCUUAACACUAUUAUAUUCUUUCUCGAUAUCAUAUUAAUCUUU
Turning to B7, the Kd came to 882 nM.

B8: Id_ii_S2_P4E.4_K4.3_C4.2_[C-2T]_[T-1A]_H4.3_A4.1_F4.1_T4.2_[G10A]_[T11A] (ssRNA)
RNA: UUUGAUUAAUAUGAUAUCGUUCUUUCUUAACACUAUUAAAUUCUUUCUCGAUAUCAUAUUAAUCUUU
For the molecule B8, the Kd was > 2300 nM.

B9: Id_ii_S2_P4E.4_K4.3_C4.2_[C-2T]_H4.3_A4.1_F4.1_T4.2_[G10C]_[T11A] (ssRNA)
RNA: UUUGAUUAAUAUGAUAUCGUUCUUUCUUUACACUAUUACAUUCUUUCUCGAUAUCAUAUUAAUCUUU
Molecule B9 returned a Kd of 198 nM.

B10: Id_ii_S2_P4E.4_K4.3_C4.2_[C-2T]_H4.3_A4.1_F4.1_T4.2 (ssRNA)
RNA: UUUGAUUAAUAUGAUAUCGUUCUUUCUUUACACUAUUAGUUUCUUUCUCGAUAUCAUAUUAAUCUUU
The molecule B10 returned a Kd of 2020 nM.

B11: Id_ii_S2_P4E.4_K4.3_C4.2_[C-2T]_H4.3_A4.1_F4.1_T4.2_[G10A] (ssRNA)
RNA: UUUGAUUAAUAUGAUAUCGUUCUUUCUUUACACUAUUAAUUUCUUUCUCGAUAUCAUAUUAAUCUUU
Molecule B11 yielded a Kd of 445 nM.

B12: Id_ii_S2_P4E.4_K4.3_C4.2_[C-2T]_H4.3_A4.1_F4.1_T4.2_[G10C]_[T11C] (ssRNA)
RNA: UUUGAUUAAUAUGAUAUCGUUCUUUCUUUACACUAUUACCUUCUUUCUCGAUAUCAUAUUAAUCUUU
B12 had a Kd of 306 nM.

B13: Id_ii_S2_P4E.4_K4.3_C4.2_[C-2T]_[T-1C]_H4.3_A4.1_F4.1_T4.2_[G10C] (ssRNA)
RNA: UUUGAUUAAUAUGAUAUCGUUCUUUCUUCACACUAUUACUUUCUUUCUCGAUAUCAUAUUAAUCUUU
For the molecule B13, the Kd is > 2300 nM.

B14: Id_ii_S2_P4E.4_K4.3_C4.2_[C-2T]_[T-1A]_H4.3_A4.1_F4.1_T4.2_[G10C]_[T11A] (ssRNA)
RNA: UUUGAUUAAUAUGAUAUCGUUCUUUCUUAACACUAUUACAUUCUUUCUCGAUAUCAUAUUAAUCUUU
For the molecule B14, binding was put at a Kd of 2190 nM.

B15: Id_ii_S2_P4E.4_K4.3_C4.2_[C-2T]_H4.3_A4.1_F4.1_T4.2_[G10A]_[T11A] (ssRNA)
RNA: UUUGAUUAAUAUGAUAUCGUUCUUUCUUUACACUAUUAAAUUCUUUCUCGAUAUCAUAUUAAUCUUU
In turn, B15 displayed a Kd of 806 nM.

B16: Id_ii_S2_P4E.4_K4.3_C4.2_[C-2T]_[T-1C]_H4.3_A4.1_F4.1_T4.2_[G10T]_[T11A] (ssRNA)
RNA: UUUGAUUAAUAUGAUAUCGUUCUUUCUUCACACUAUUAUAUUCUUUCUCGAUAUCAUAUUAAUCUUU
B16: the Kd turned out to be 479 nM.

B17: Id_ii_S2_P4E.4_K4.3_C4.2_[C-2T]_[T-1A]_H4.3_A4.1_F4.1_T4.2_[G10T] (ssRNA)
RNA: UUUGAUUAAUAUGAUAUCGUUCUUUCUUAACACUAUUAUUUUCUUUCUCGAUAUCAUAUUAAUCUUU
The molecule B17 had a Kd of 2160 nM.

B18: Ia_S1_P5E.1_K5.1_C5.1_H5.1_[T3C]_A5.1_F5.1_T5.1 (ssRNA)
RNA: UCUCUUUGCAUUAUUAUCUCUU
As to B18, the Kd came to 1250 nM.

B19: Ib_S1_P5E.1_K5.1_C5.1_H5.1_A5.1_[T5C]_F5.1_[T8G]_T5.1 (ssRNA)
RNA: UCUCUUUGUACUAGUAUCUCUU
As to B19, the affinity, expressed as Kd, was 23.5 nM.
